Test in all cases: purified protein
The subject of data set [1] is Nc1ncnc2c1ncn2[C@@H]1O[C@H](COP(=O)(O)OP(=O)(O)O)[C@@H](O)[C@H]1O. The following applies: reverse direction, 1 mM 25-phospho-CDO, 10 mM MgCl2, 9% (w/v) HPCD, 50 mM Tris/HCl pH 7.8, 30 °C.
Data set [2] relates to C[C@H](CCCC(C)(C)O)[C@H]1CC[C@H]2[C@@H]3CCC4=CC(=O)C=C[C@]4(C)[C@H]3CC[C@]12C. The following applies: forward direction, 5 mM ATP, 10 mM MgCl2, 9% (w/v) HPCD, 50 mM Tris/HCl pH 7.8, 30 °C.
For data set [3], the system named is C[C@H](CCCC(C)(C)OP(=O)(O)O)[C@H]1CC[C@H]2[C@@H]3CCC4=CC(=O)C=C[C@]4(C)[C@H]3CC[C@]12C. Conditions: reverse direction, 5 mM ADP, 10 mM MgCl2, 9% (w/v) HPCD, 50 mM Tris/HCl pH 7.8, 30 °C, apparent, tested only up to 4 mM, no saturation.
The subject of data set [4] is Nc1ncnc2c1ncn2[C@@H]1O[C@H](COP(=O)(O)OP(=O)(O)OP(=O)(O)O)[C@@H](O)[C@H]1O. Conditions: forward direction, 1 mM 25-OH-CDO, 10 mM MgCl2, 9% (w/v) HPCD, 50 mM Tris/HCl pH 7.8, 30 °C.

By Km is commonly meant the concentration of substrate that gives half-maximal velocity. “25-HSK (25-hydroxy-steroid kinase) (Sterolibacterium denitrificans)”: the Km in data set [1] came to 35 ± 3 µM; in data set [2] it was 300 ± 10 µM; in data set [3], 8000 ± 700 µM; in data set [4], 800 ± 50 µM.

For the origin of these results see article PMC8449060, “A fully reversible 25-hydroxy steroid kinase involved in oxygen-independent cholesterol side-chain oxidation” (The Journal of Biological Chemistry, 2021).
